A short description of the data set: protein stability index of a GFP-peptide fusion (GPS, HEK-293T) (PSI 1-6); higher = more stable.
Setting [1] is: treatment: DMSO, c terminus: a fixed tail appended.
[2] abbreviates: treatment: MLN4924 1 uM, 8 h, c terminus: a fixed tail appended.

± gives the standard deviation.
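Further: 24-mer peptide tiles fused after GFP, lentivirally expressed, FACS-sorted into six equal bins by GFP/DsRed ratio, decoded by Illumina sequencing, PSI is the read-weighted mean bin number.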

Turning to LDSEIKKNSDGMEAAGVQIQMVNE [CD207], the protein stability index amounted to 5.41 ± 0.59 under setting [1] and 5.22 ± 0.35 under setting [2].

LDVECHEKEKHVNQLQTKVAVLEQ [SASS6]: the protein stability index amounted to 5.03 ± 0.11 under setting [1] and 5.07 ± 0.21 under setting [2].

Turning to LECEINTYRSLLESEDCKLPCNPC [KRT34], the protein stability index by setting is: under setting [1], 3.81 ± 0.16; under setting [2], 3.94 ± 0.35.

As to LEDVERELDGPKQIFFGRRKDMIA [ZNF396], the protein stability index runs as follows: under setting [1], 3.98 ± 0.3; under setting [2], 4 ± 0.15.

On to LEEAEGAVGYQPEYSKFCRMSYQD [NFE2L1], for which the protein stability index runs as follows: under setting [1], 3.56 ± 0.4; under setting [2], 3.05 ± 0.31.

Consider LEEEEEEEEEAEDEEVVATAGDRL [IRX6], for which the protein stability index worked out at 5.71 ± 0.27 under setting [1] and 5.46 ± 0.32 under setting [2].

With LEKVECTPSQEHLKHQTVYRLLKC [FEM1A], the protein stability index reads like this: under setting [1], 2.85 ± 0.26; under setting [2], 3.07 ± 0.38.

Take LEQPFLSVFKKGRRRVPVRNLGKV [PLEKHN1]: the protein stability index is, setting by setting: under setting [1], 3.19 ± 0.31; under setting [2], 3.56 ± 0.58.

For the sequence LEVEREAEKKREAKQRAKEAQERE [LRRC59], the protein stability index reads like this: under setting [1], 5.45 ± 0.42; under setting [2], 5.63 ± 0.19.

As for LEVMEEEELANLRASQREYEELRN [RSPH3], the protein stability index was found to be 5.22 ± 0.43 under setting [1] and 5.09 ± 0.18 under setting [2].

As for LEYRFYEQLGSGDGIPQVYYFGPC [CSNK1G3], the protein stability index was 2.19 ± 0.29 under setting [1] and 2.13 ± 0.2 under setting [2].

With LFDTKHDVYSFAIVIWGVLTQKKP [RIPK4], the protein stability index by setting is: under setting [1], 2.49 ± 0.56; under setting [2], 2.72 ± 0.17.

Turning to LFLDLLQSYKDLCERHEKGVLHKH [SNX8], the protein stability index by setting is: under setting [1], 2.49 ± 0.12; under setting [2], 2.64 ± 0.37.

On to LFSNSDHQRDGTLGALHTSSKPTA [SASS6], for which the protein stability index runs as follows: under setting [1], 4.36 ± 0.27; under setting [2], 4.51 ± 0.065.

LGALHTSSKPTALPSASSAYFPGQ [SASS6]: the protein stability index was found to be 3.59 ± 0.29 under setting [1] and 3.67 ± 0.45 under setting [2].

For LGAQTQFDVKNDRYIVNGSHEANK [EIF5], the protein stability index reads like this: under setting [1], 4.8 ± 0.3; under setting [2], 4.77 ± 0.2.

With LGDKGLSDTPYDSSASYEKENEMM [IKZF1], the protein stability index reads like this: under setting [1], 5.37 ± 0.14; under setting [2], 5.26 ± 0.18.

Turning to LGFARRNWGNGKRPNLETYYERVL [GDAP1], the protein stability index was 2.38 ± 0.38 under setting [1] and 2.36 ± 0.57 under setting [2].

As to LGKIFDLIGLPPEDDWPRDVSLPR [CDK4], the protein stability index under setting [1] was 2.34 ± 0.5 and the protein stability index under setting [2] was determined as 2.42 ± 0.13.

Take LGNFKDDLLNVCMRHVEKMCKADL [TRIM29]: the protein stability index runs as follows: under setting [1], 2.36 ± 0.13; under setting [2], 2.47 ± 0.19.

Turning to LGQHMVEQLLARGYAVNVFDIQQG [NSDHL], the protein stability index is, setting by setting: under setting [1], 2.72 ± 0.9; under setting [2], 2.22 ± 0.57.

As to LGSAPLDQEPLLSIDLGTAHSAAV [NEK8], the protein stability index reads like this: under setting [1], 4.08 ± 0.22; under setting [2], 4.11 ± 0.15.

As to LGSDDINVVTCAAGILSNLTCNNY [CTNNB1], the protein stability index reads like this: under setting [1], 2.27 ± 0.22; under setting [2], 2.37 ± 0.22.

For the sequence LHALKLRSPDASPSRAPPSTQEPQ [GNAS], the protein stability index stood at 4.54 ± 0.25 under setting [1] and 4.65 ± 0.1 under setting [2].

On to LHAWEMKPYAVMVFQTEQKNLFRL [N4BP2L1], for which the protein stability index was 2.44 ± 0.61 under setting [1] and 2.41 ± 0.41 under setting [2].

As for LILSREASWAKPHYEFNLSRMKFR [LCOR], the protein stability index worked out at 2.27 ± 0.18 under setting [1] and 2.11 ± 0.28 under setting [2].

Take LKDEEGKLKDLSTVTSLQVPVLKP [PPP2R2C]: the protein stability index is, setting by setting: under setting [1], 4.91 ± 0.17; under setting [2], 5.02 ± 0.085.

Regarding LKVRSHDPEEAIRHDVIVSIVTAA [PDS5B], the protein stability index is 2.43 ± 0.19 under setting [1] and 2.35 ± 0.27 under setting [2].

On to LLATRIAVYLMTFLIVTVAWAAHT [TMEM175], for which the protein stability index by setting is: under setting [1], 3.5 ± 0.17; under setting [2], 3.12 ± 0.24.

LLDNPLCADVLFILQDQEHIFAHR [RHOBTB1]: the protein stability index runs as follows: under setting [1], 2.36 ± 0.35; under setting [2], 2.17 ± 0.11.

Turning to LLEEEEKQWGPLEREPVRGQCLDS [RTN2], the protein stability index under setting [1] came to 5.1 ± 0.3 and the protein stability index under setting [2] turned out to be 5.26 ± 0.077.

LLKHPNIVRLHDSISEEGFHYLVF [CAMK2D]: the protein stability index runs as follows: under setting [1], 2.42 ± 0.32; under setting [2], 2.2 ± 0.18.

In the case of LLLENGAGINTHSNEFKESALTLA [ANKRD17], the protein stability index runs as follows: under setting [1], 2.32 ± 0.54; under setting [2], 2.76 ± 0.6.

Take LLNTLSLAFVGGLPLAYQQTSAFA [TMEM175]: the protein stability index is 3.2 ± 0.3 under setting [1] and 2.74 ± 0.42 under setting [2].

As for LLPESGIVADIELENVLDPDSFYE [TFE3], the protein stability index worked out at 4.47 ± 0.3 under setting [1] and 4.76 ± 0.49 under setting [2].

In the case of LLQLPDTKVGSFMIRESETKKGFY [SLA], the protein stability index was 2.75 ± 0.25 under setting [1] and 2.95 ± 0.047 under setting [2].

For the sequence LLRDPADASEAHESSSRGEAGAPG [CHGB], the protein stability index under setting [1] worked out at 5.45 ± 0.28 and the protein stability index under setting [2] was 5.34 ± 0.24.

On to LLRHRMNWLGRPSKVLSLQDLCCR [RAB40A], for which the protein stability index is, setting by setting: under setting [1], 2.62 ± 0.27; under setting [2], 2.71 ± 0.35.

In the case of LLTLLPQLQEAWQQRTPSPVPGG [RSAD1], the protein stability index runs as follows: (treatment: DMSO, c terminus: native) 3.3 ± 0.21; (treatment: MLN4924 1 uM, 8 h, c terminus: native) 2.83 ± 0.54.

Take LLWATNEFSLVNVNLQRFGMNGQM [ETS2]: the protein stability index under setting [1] came to 2.9 ± 0.64 and the protein stability index under setting [2] is 2.94 ± 0.49.

For LLYNRSNNKYSYTSNSDDNMLKNI [KCTD10], the protein stability index runs as follows: under setting [1], 2.52 ± 0.28; under setting [2], 2.74 ± 0.6.

With LMQVHASRSNNMGIVGGFTQMIRE [SLC25A25], the protein stability index runs as follows: under setting [1], 2.75 ± 0.21; under setting [2], 2.94 ± 0.24.

With LMRAQRNYMVQTEDQYIFIHDALL [PTPRD], the protein stability index runs as follows: under setting [1], 2.48 ± 0.46; under setting [2], 2.41 ± 0.53.

For LNEDTIQDVVQAADLLLLTDLKTL [GAN], the protein stability index reads like this: under setting [1], 3.03 ± 0.31; under setting [2], 3.16 ± 0.44.

LNFQIEHHLFPTMPRHNYHKVAPL [FADS1]: the protein stability index reads like this: under setting [1], 1.98 ± 0.33; under setting [2], 2.02 ± 0.51.

As for LNGTKVAEGHKASFCLEDTECEGD [LOXL2], the protein stability index reads like this: under setting [1], 5.41 ± 0.33; under setting [2], 5.59 ± 0.12.

LNMEEPPVEEPEPKPDRLLVLKVL [SLC19A2] yielded a protein stability index under setting [1] of 3.5 ± 0.56 and a protein stability index under setting [2] of 3.8 ± 0.25.

Consider LNSEQAEQLERINDALSCEYECRR [FAM98B], for which the protein stability index by setting is: under setting [1], 4.54 ± 0.29; under setting [2], 4.66 ± 0.11.

In the case of LPDNYEIIDSSLEDITYVLKPTFT [USP39], the protein stability index came out at 2.87 ± 0.39 under setting [1] and 2.8 ± 0.47 under setting [2].

For LPEAPPKKFLTLGSKFRYSGRTQA [EPB41L3], the protein stability index was found to be 3 ± 0.28 under setting [1] and 3.18 ± 0.39 under setting [2].

For LPPEALTAPSGGQWGAEPEGSCYQ [RNF208], the protein stability index reads like this: under setting [1], 4.73 ± 0.42; under setting [2], 4.73 ± 0.078.

As to LPRRPRKGSSELGFPRVAPEDEVI [RNF208], the protein stability index worked out at 4.37 ± 0.23 under setting [1] and 4.33 ± 0.15 under setting [2].

LPTITSELSGAPRCHTVPCAGSTA [PXN]: the protein stability index under setting [1] is 3.86 ± 0.34 and the protein stability index under setting [2] is 3.83 ± 0.27.

In the case of LPVGGRLPGPTRPVLGRRAVGGRL [HAGHL], the protein stability index was determined as 3.983 ± 0.03 under setting [1] and 4.24 ± 0.64 under setting [2].

LQHEERETRQKKLEVAMEEEGLAD [STK38L]: the protein stability index is 5.59 ± 0.28 under setting [1] and 5.56 ± 0.11 under setting [2].

Turning to LQHGDQLSICFTCFKAAFLDFKDL [TEX19], the protein stability index under setting [1] was 2.89 ± 0.52 and the protein stability index under setting [2] stood at 2.51 ± 0.36.

As to LQKDEYRPDKALSEGDLKNAIRVH [PSD2], the protein stability index by setting is: under setting [1], 4.56 ± 0.055; under setting [2], 4.58 ± 0.16.

As for LQMEFKAVQQVQRLPFLSSSNLSL [POMP], the protein stability index by setting is: under setting [1], 2.15 ± 0.22; under setting [2], 2.16 ± 0.17.

As for LRAFVNSQIQGHKEMSKVWNDLRP [SNX8], the protein stability index was found to be 2.39 ± 0.21 under setting [1] and 2.62 ± 0.27 under setting [2].

For the sequence LRGPRERAPSERSGPAASEHSHRS [DVL3], the protein stability index reads like this: under setting [1], 5.14 ± 0.3; under setting [2], 5.34 ± 0.057.

In the case of LRKIIDFIYTAKLSLNMDNLQDTL [KLHL13], the protein stability index by setting is: under setting [1], 2.79 ± 0.63; under setting [2], 2.44 ± 0.78.

Regarding LRQQCAQVLRNNPDALSDVGEVPY [ELOA2], the protein stability index stood at 3.88 ± 0.21 under setting [1] and 3.93 ± 0.16 under setting [2].

On to LRQRRPLRPQVVTDDDGQAPEAKD [APMAP], for which the protein stability index is, setting by setting: under setting [1], 5.43 ± 0.16; under setting [2], 5.52 ± 0.12.

For the sequence LRRIRAESGTKGLFAGFLPRIIKA [SLC25A39], the protein stability index was 2.05 ± 0.27 under setting [1] and 2.15 ± 0.33 under setting [2].

As to LRTTVHHAFPVVTENRGNEKEFMK [CLCN6], the protein stability index runs as follows: under setting [1], 4.05 ± 0.27; under setting [2], 4.38 ± 0.098.

As to LRVWDMFFCEGVKIIFRVGLVLLK [TBC1D10A], the protein stability index runs as follows: under setting [1], 2.6 ± 0.38; under setting [2], 2.37 ± 0.29.

Regarding LSARDHQKLEREARICRLLKHPNI [CAMK2A], the protein stability index came to 2.98 ± 0.069 under setting [1] and 3.01 ± 0.26 under setting [2].

On to LSFAAKQRELHSHVTNAMVLVNVL [DHCR7], for which the protein stability index is 2.49 ± 0.77 under setting [1] and 2.44 ± 0.79 under setting [2].

LSLCCWGWVSGQLRYSVVEESEPG [PCDHGC5] registered a protein stability index under setting [1] of 2.65 ± 0.48 and a protein stability index under setting [2] of 2.25 ± 0.5.

Consider LSLEAVICFKEMLANSWNCLPKHL [KLHDC2], for which the protein stability index is, setting by setting: under setting [1], 2.49 ± 0.35; under setting [2], 2.37 ± 0.53.

LSSAEENEPSQAETAVEGDPSGVS [C18orf25]: the protein stability index came out at 5.47 ± 0.24 under setting [1] and 5.39 ± 0.47 under setting [2].

Consider LTHLSLSRRASESSLSSESSESSD [CDC25B], for which the protein stability index runs as follows: under setting [1], 5.38 ± 0.24; under setting [2], 5.4 ± 0.12.

For the origin of these results see the supplement of paper PMC10567573.
